Molecular target: GST
Assay: SPR

B1: Recombinant His-tagged Aurora-A (enzyme)
chain: MDRSKENCISGPVKATAPVGGPKRVLVTQQFPCQNPLPVNSGQAQRVLCPSNSSQRIPLQAQKLVSSHKPVQNQKQKQLQATSVPHPVSRPLNNTQKSKQPLPSAPENNPEEELASKQKNEESKKRQWALEDFEIGRPLGKGKFGNVYLAREKQSKFILALKVLFKAQLEKAGVEHQLRREVEIQSHLRHPNILRLYGYFHDATRVYLILEYAPLGTVYRELQKLSKFDEQRTATYITELANALSYCHSKRVIHRDIKPENLLLGSAGELKIADFGWSVHAPSSRRTTLCGTLDYLPPEMIEGRMHDEKVDLWSLGVLCYEFLVGKPPFEANTYQETYKRISRVEFTFPDFVTEGARDLISRLLKHNPSQRPMLREVLEHPWITANSSKPSNCQNKESASKQS
Q: For B1, which Kd is on record?
A: The Kd was > 5 µM.

From publication PMC5458272 (2017)
